Key:
HLA-A*02:01 = HLA-A*02:01 (Homo sapiens, UniProt P04439, D140Y/D185E/D98H/E176V/E277Q/G131W/G231S/I119V/I121R/I166T/I218V/L300P/L318F/N151K/N90K/P208A/P217A/Q86G/Q94H/R138H/R169H/T345S); assay: MHC binding assay (UV-ligand exchange, beta2m ELISA); conditions: binding of HLA-class I restricted peptides to HLA-A*02:01, β2m ELISA
How it was run: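 Exchange yield is an ELISA read-out: complexes diluted 100-fold, captured on streptavidin plates, detected with HRP anti-β2m and TMB at 450 nm. Standard curve from refolded HLA-A*02:01/MLA-001 (15-500 ng/ml); complexes made by UV-triggered displacement of a photolabile ligand by test peptide.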

CD8+ T cells = assay: In vitro T-cell priming assay with aAPCs loaded with peptide/MHC and anti-CD28, multimer readout; format: cell-based, human; conditions: in vitro immunogenicity, HLA-A*02 restricted peptides; percentage of positive wells
Excerpt: In order to obtain information regarding the immunogenicity of the TUMAPs of the present invention, the inventors performed investigations using an in vitro T-cell priming assay based on repeated stimulations of CD8+ T cells with artificial antigen presenting cells (aAPCs) loaded with peptide/MHC complexes and anti-CD28 antibody.
In order to perform in vitro stimulations by artificial antigen presenting cells loaded with peptide-MHC complex (pMHC) and anti-CD28 antibody, the inventors first isolated CD8+ T cells from fresh HLA-A*02 leukapheresis products via positive selection using CD8 microbeads (Miltenyi Biotec, Bergisch-Gladbach, Germany) of healthy donors obtained from the University clinics Mannheim, Germany, after informed consent.
PBMCs and isolated CD8+ lymphocytes were incubated in T-cell medium (TCM) until use consisting of RPMI-Glutamax (Invitrogen, Karlsruhe, Germany) supplemented with 10% heat inactivated human AB serum (PAN-Biotech, Aidenbach, Germany), 100 U/ml Penicillin/100 μg/ml Streptomycin (Cambrex, Cologne, Germany), 1 mM sodium pyruvate (CC Pro, Oberdorla, Germany), 20 μg/ml Gentamycin (Cambrex). 2.5 ng/ml IL-7 (PromoCell, Heidelberg, Germany) and 10 U/ml IL-2 (Novartis Pharma, Nürnberg, Germany) were also added to the TCM at this step.
Generation of pMHC/anti-CD28 coated beads, T-cell stimulations and readout was performed in a highly defined in vitro system using four different pMHC molecules per stimulation condition and 8 different pMHC molecules per readout condition.
The purified co-stimulatory mouse IgG2a anti human CD28 Ab 9.3 (Jung et al., 1987) was chemically biotinylated using Sulfo-N-hydroxysuccinimidobiotin as recommended by the manufacturer (Perbio, Bonn, Germany). Beads used were 5.6 μm diameter streptavidin coated polystyrene particles (Bangs Laboratories, Illinois, USA).
800.000 beads/200 μl were coated in 96-well plates in the presence of 4×12.5 ng different biotin-pMHC, washed and 600 ng biotin anti-CD28 were added subsequently in a volume of 200 μl. Stimulations were initiated in 96-well plates by co-incubating […] CD8+ T cells with 2×10^5 washed coated beads in 200 μl TCM supplemented with 5 ng/ml IL-12 (PromoCell) for 3 days at 37° C. Half of the medium was then exchanged by fresh TCM supplemented with 80 U/ml IL-2 and incubating was continued for 4 days at 37° C. This stimulation cycle was performed for a total of three times. For the pMHC multimer readout using 8 different pMHC molecules per condition, a two-dimensional combinatorial coding approach was used as previously described (Andersen et al., 2012) with minor modifications encompassing coupling to 5 different fluorochromes. Finally, multimeric analyses were performed by staining the cells with Live/dead near IR dye (Invitrogen, Karlsruhe, Germany), CD8-FITC antibody clone SK1 (BD, Heidelberg, Germany) and fluorescent pMHC multimers. For analysis, a BD LSRII SORP cytometer equipped with appropriate lasers and filters was used. Peptide specific cells were calculated as percentage of total CD8+ cells. Evaluation of multimeric analysis was done using the FlowJo software (Tree Star, Oreg., USA). In vitro priming of specific multimer+CD8+ lymphocytes was detected by comparing to negative control stimulations.

Substance	Peptide Exchange (MHC class I binding score, peptide exchange yield) (HLA-A*02:01)	Wells positive [%] (CD8+ T cells)
57 (GLSEISLRL; listed as Homo sapiens) [compound 57]	“++++” (≥75% = ++++)	“+” (<20% = +)
69 (GLHQREIFL; listed as Homo sapiens) [compound 69]	“+++” (≥50 = +++)	“+” (<20% = +)
81 (WLVGQEFEL; listed as Homo sapiens) [compound 81]	“+++” (≥50 = +++)	“+” (<20% = +)
86 (HLYPGAVTI; listed as Homo sapiens) [compound 86]	“+++” (≥50 = +++)	“+” (<20% = +)
96 (ILIDKTSFV; listed as Homo sapiens) [compound 96]	“+++” (≥50 = +++)	“+” (<20% = +)
100 (ILNNEVFAI; listed as Homo sapiens) [compound 100]	“+++” (≥50 = +++)	“++” (20%-49% = ++)
101 (ILVVIEPLL; listed as Homo sapiens) [compound 101]	“++++” (≥75% = ++++)	“+” (<20% = +)
102 (IQDRAVPSL; listed as Homo sapiens) [compound 102]	“++” (≥20% = ++)	“+” (<20% = +)
112 (KTLDVDATYEI; listed as Homo sapiens) [compound 112]	“+++” (≥50 = +++)	“+” (<20% = +)
114 (LIPEGPPQV; listed as Homo sapiens) [compound 114]	“+++” (≥50 = +++)	“+” (<20% = +)
154 (SLLAELHVLTV; listed as Homo sapiens) [compound 154]	“++++” (≥75% = ++++)	“+” (<20% = +)
192 (YIQEYLTLL; listed as Homo sapiens) [compound 192]	“+++” (≥50 = +++)	“+” (<20% = +)
197 (YLQEVPILTL; listed as Homo sapiens) [compound 197]	“++++” (≥75% = ++++)	“+” (<20% = +)
200 (YMFEEVPIVI; listed as Homo sapiens) [compound 200]	“++++” (≥75% = ++++)	“+” (<20% = +)

Now from value to substance, other results behind:

Peptide Exchange (MHC class I binding score, peptide exchange yield) (HLA-A*02:01)	Substance	Wells positive [%] (CD8+ T cells)
“++++” (≥75% = ++++)	201 (YQLELHGIEL; listed as Homo sapiens) [compound 201]	“+” (<20% = +)
“++++” (≥75% = ++++)	202 (YVDDVFLRV; listed as Homo sapiens) [compound 202]	“++” (20%-49% = ++)
“+++” (≥50 = +++)	220 (ALPEILFAKV; listed as Homo sapiens) [compound 220]	“++” (20%-49% = ++)
“+++” (≥50 = +++)	240 (ILARDILEI; listed as Homo sapiens) [compound 240]	“+” (<20% = +)
“+++” (≥50 = +++)	281 (NLLDDRGMTAL; listed as Homo sapiens) [compound 281]	“+” (<20% = +)
“+++” (≥50 = +++)	282 (LLRDGIELV; listed as Homo sapiens) [compound 282]	“++” (20%-49% = ++)
“+++” (≥50 = +++)	307 (LLLTKPTEA; listed as Homo sapiens) [compound 307]	“+” (<20% = +)
“++++” (≥75% = ++++)	320 (TIAPVTVAV; listed as Homo sapiens) [compound 320]	“+” (<20% = +)
“+++” (≥50 = +++)	322 (SLASIHVPL; listed as Homo sapiens) [compound 322]	“+” (<20% = +)
“++++” (≥75% = ++++)	323 (SLDLFNCEV; listed as Homo sapiens) [compound 323]	“+” (<20% = +)
“++++” (≥75% = ++++)	329 (VLMDGSVKL; listed as Homo sapiens) [compound 329]	“+++” (50%-69% = +++)
“+++” (≥50 = +++)	332 (VMIQHVENL; listed as Homo sapiens) [compound 332]	“+” (<20% = +)
“+++” (≥50 = +++)	380 (YLDRKLLTL; listed as Homo sapiens) [compound 380]	“++++” (>=70% = ++++)
